Holding throughout (assay): cryo-EM structure
The target of data set [1] is S. cerevisiae fatty acid synthase subunit FAS1/ß (S. cerevisiae (endogenous in W303 or BY4742 cells)) (UniProt P07149).
In data set [2] the target is S. pombe fatty acid synthase subunit FAS1/ß (S. pombe (endogenous in K972 cells)) (UniProt Q9UUG0).
Data set [3] concerns the molecule itself.

Consider “S. cerevisiae fatty acid synthase subunit FAS1/ß, P07149 1-2051”, for which the stoichiometry N (commonly a count of units in the complex or per binding partner) in data set [1] was 3.
“S. pombe fatty acid synthase subunit FAS1/ß, Q9UUG0 1-2073” registered a stoichiometry N in data set [2] of 3.

B1: S. pombe fatty acid synthase subunit FAS2/α (enzyme, S. pombe (endogenous in K972 cells), UniProt Q10289 1-1842, looked up)
chain: MRPEVEQELAHTLLLELLAYQFASPVRWIETQDVILSPPVSAERIVEIGPSPTLAGMAKRTLKLKYENMDAALSINREVLCYSKDAREIYYNFEDEVADEPAEAPASTSSTPKVETAAAAAPAATPAPAPAQTSAPAAALPDEPPKALEVLHTLVAQKLKKSIEEVSPQKSIKDLVGGKSTLQNEILGDLQKEFGATPEKPEEVPLDELGAIMQSSFNGSLGKQSSSLISRMISSKMPGGFNNSAVRGYLGNRYGLGPGRLESVLLLALTMEPASRLGSEADAKAWLDSVAQKYAARNGVTLSSPTAEGGSSSGSAAVIDEETFKKLTKNNTMLVTQQLELFARYLNKDLRAGQKAQVAEKVISDTLRAQLDLWNEEHGEFYASGIAPIFSPLKARVYDSDWNWARQDALKMFFDIIFGRLKHVDTEIVARCISVMNRSNPTLLEFMQYHIDHCPAEKGETYQLAKTLGQQLIDNCKSVIDAPPVFKNVNHPTAPSTTIDERGNLNYEEIPRPGVRKLTHYVTEMAKGGKLPTESKNKAKVQNDLARIYRIIKSQNKMSRSSKLQIKQLYGQVLHALSLPLPSSNDEQTPVKETIPFLHIRKKSVDGNWEFNKSLTGTYLDVLESGAKNGITYQDKYALVTGAGAGSIGAQIVEGLLAGGAKVVVTTSRFSRKVTEFYQSLYTRHGSRGSCLIVVPFNQGSKTDVEALIDYIYDEKKGLGWNLDYIVPFAAIPENGREIDGIDSRSEFAHRIMLTNILRLLGAVKSQKASRGMDTRPAQVILPLSPNHGTFGNDGLYSESKLGLETLFNRWYSESWANYLTICGAVIGWTRGTGLMAPNNIVSQGIEKYGVRTFSQSEMAFNILGLMSQKVVDLCQSEPIYANLNGGLELLPDLKDLSTRLRTELLETAEIRRAVAAETAFDHSITNGPDSEAVFQKTAIQPRANLKFNFPKLKPYEALSHLSDLRGMVDLEKVPVVTGFSEVGPWGNSRTRWDMECYGEFSLEGCVEIAWIMGLIKNFNGKGKDGKPYSGWVDTKTGEPVDDKDVKAKYEKYILEHCGIRIIEAELFHGYNPEKKELLQEVVIDHDLEPFEASKEAAHEFKLRHGDQVEIFEIPDSTEWSVRFKRGTSMLIPKALRFDRFVAGQIPLGWDPKRYGIPDDIISQVDPTTLYVLVSTVEALVASGITDPYECYKYIHVSELGNTVGSGIGGMSALRGMYKDRWTDKPVQKDILQESFINTANAWINMLLLSASGPIKTPVGACATAVESVDAAVDLITSGKARICISGGYDDFSEEGSYEFANMGATSNAAKETERGRTPQEMSRPATSTRDGFMESQGAGVQIIMQAKLAIEMGVPIHGIVGYVSTAMDKQGRSVPAPGQGILTGAREIATKTPLPIVDLKFRSRQLQRRRSQIGEWAEREYLYLEEELDAMKVQNPDLDLEAYRIERINVIKEEVVRQEKEALNTFGNEFWKRDPTIAPIRGALAVWGLTIDDLGVASFHGTSTKANEKNECDVIDSQLTHLGRSKGNAVYGVFQKYLTGHSKGGAGAWMLNGALQILRSGFVPGNRNADNIDEYLARFDRVMFPSEGIQTDGIKAASVTAFGFGQVGGQVIVIHPDYIYGVIDEATYNAYKAKTAARYKASYRYTHDALVYNNLVRAKDSPPYTKEQEKAVYLNPLARASKSKAGTWTFPATLPAESDISKTNETTRTLQSLTTSLTNSNENVGVDVELVSAISIDNETFIERNFTDTERKYCFAAPNPQASFAGRWSAKEAVFKSLGISGKGAAAPLKDIEIISSESGAPEVVLHGEAAKAATTAGVKSVSVSISHDDNQSVSVALAHK
On to B1, for which the “stoichiometry N” value in data set [3] is 6.

B2: S. cerevisiae fatty acid synthase subunit FAS2/α (enzyme, UniProt P19097 1-1887, looked up)
chain: MKPEVEQELAHILLTELLAYQFASPVRWIETQDVFLKDFNTERVVEIGPSPTLAGMAQRTLKNKYESYDAALSLHREILCYSKDAKEIYYTPDPSELAAKEEPAKEEAPAPTPAASAPAPAAAAPAPVAAAAPAAAAAEIADEPVKASLLLHVLVAHKLKKSLDSIPMSKTIKDLVGGKSTVQNEILGDLGKEFGTTPEKPEETPLEELAETFQDTFSGALGKQSSSLLSRLISSKMPGGFTITVARKYLQTRWGLPSGRQDGVLLVALSNEPAARLGSEADAKAFLDSMAQKYASIVGVDLSSAASASGAAGAGAAAGAAMIDAGALEEITKDHKVLARQQLQVLARYLKMDLDNGERKFLKEKDTVAELQAQLDYLNAELGEFFVNGVATSFSRKKARTFDSSWNWAKQSLLSLYFEIIHGVLKNVDREVVSEAINIMNRSNDALIKFMEYHISNTDETKGENYQLVKTLGEQLIENCKQVLDVDPVYKDVAKPTGPKTAIDKNGNITYSEEPREKVRKLSQYVQEMALGGPITKESQPTIEEDLTRVYKAISAQADKQDISSSTRVEFEKLYSDLMKFLESSKEIDPSQTTQLAGMDVEDALDKDSTKEVASLPNKSTISKTVSSTIPRETIPFLHLRKKTPAGDWKYDRQLSSLFLDGLEKAAFNGVTFKDKYVLITGAGKGSIGAEVLQGLLQGGAKVVVTTSRFSKQVTDYYQSIYAKYGAKGSTLIVVPFNQGSKQDVEALIEFIYDTEKNGGLGWDLDAIIPFAAIPEQGIELEHIDSKSEFAHRIMLTNILRMMGCVKKQKSARGIETRPAQVILPMSPNHGTFGGDGMYSESKLSLETLFNRWHSESWANQLTVCGAIIGWTRGTGLMSANNIIAEGIEKMGVRTFSQKEMAFNLLGLLTPEVVELCQKSPVMADLNGGLQFVPELKEFTAKLRKELVETSEVRKAVSIETALEHKVVNGNSADAAYAQVEIQPRANIQLDFPELKPYKQVKQIAPAELEGLLDLERVIVVTGFAEVGPWGSARTRWEMEAFGEFSLEGCVEMAWIMGFISYHNGNLKGRPYTGWVDSKTKEPVDDKDVKAKYETSILEHSGIRLIEPELFNGYNPEKKEMIQEVIVEEDLEPFEASKETAEQFKHQHGDKVDIFEIPETGEYSVKLLKGATLYIPKALRFDRLVAGQIPTGWNAKTYGISDDIISQVDPITLFVLVSVVEAFIASGITDPYEMYKYVHVSEVGNCSGSGMGGVSALRGMFKDRFKDEPVQNDILQESFINTMSAWVNMLLISSSGPIKTPVGACATSVESVDIGVETILSGKARICIVGGYDDFQEEGSFEFGNMKATSNTLEEFEHGRTPAEMSRPATTTRNGFMEAQGAGIQIIMQADLALKMGVPIYGIVAMAATATDKIGRSVPAPGKGILTTAREHHSSVKYASPNLNMKYRKRQLVTREAQIKDWVENELEALKLEAEEIPSEDQNEFLLERTREIHNEAESQLRAAQQQWGNDFYKRDPRIAPLRGALATYGLTIDDLGVASFHGTSTKANDKNESATINEMMKHLGRSEGNPVIGVFQKFLTGHPKGAAGAWMMNGALQILNSGIIPGNRNADNVDKILEQFEYVLYPSKTLKTDGVRAVSITSFGFGQKGGQAIVVHPDYLYGAITEDRYNEYVAKVSAREKSAYKFFHNGMIYNKLFVSKEHAPYTDELEEDVYLDPLARVSKDKKSGSLTFNSKNIQSKDSYINANTIETAKMIENMTKEKVSNGGVGVDVELITSINVENDTFIERNFTPQEIEYCSAQPSVQSSFAGTWSAKEAVFKSLGVKSLGGGAALKDIEIVRVNKNAPAVELHGNAKKAAEEAGVTDVKVSISHDDLQAVAVAVSTKK
On to B2, for which, in data set [3], the “stoichiometry N” value was 6.
